{"source": "paper doi:10.1101/2021.10.28.465226", "target": "SARS-CoV-2 spike heptad repeat 1 (HR1) with C-terminal poly-his tag (SARS-CoV-2)", "experiment": "SPR", "note": "pKd: −log10 of the molar value."}
{"substance": "SARS-CoV-2 spike heptad repeat 2 (HR2) peptide", "values": [{"measurement": "pKd", "value": 8.65}]}
